This data set deals with T1, EutR::MBP (Salmonella enterica serovar Typhimurium SL1344) (UniProt Q9ZFU7).
T1 sequence: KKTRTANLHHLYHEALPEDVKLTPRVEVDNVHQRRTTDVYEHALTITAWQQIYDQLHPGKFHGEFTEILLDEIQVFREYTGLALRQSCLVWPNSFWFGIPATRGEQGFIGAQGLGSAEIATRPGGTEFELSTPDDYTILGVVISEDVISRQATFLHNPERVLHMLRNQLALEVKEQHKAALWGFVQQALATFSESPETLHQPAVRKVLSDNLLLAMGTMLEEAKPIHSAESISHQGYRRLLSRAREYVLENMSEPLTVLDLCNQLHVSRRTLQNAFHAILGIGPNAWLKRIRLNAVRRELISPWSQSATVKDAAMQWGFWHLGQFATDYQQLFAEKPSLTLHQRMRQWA
Nature of the data set: competition. As to conditions: 60 mM HEPES pH 7.5, 300 mM KCl, 25 mM MgCl2, 5 mM EDTA, 3 mM DTT, 500 ug/ml BSA, 50 ng poly-dIdC, 1 mM ethanolamine, 150 nM vitamin B12; 25 min at 25 C; 6% ….

On to “CCGGAATTGCCAGCTGGGGCGCCCTCTGGTAAGGTTGGGAAGCCCTGCAAAGTAAACTGGATGGCTTTCTTGCCGCCAAGGATCTGATGGCGCAGGGGATCAAGATCTGATCAAGAGACAGGATGAGGATCGTTTCGCATGATTGAACAAGA (double strand) [kan promoter probe]”, for which the binding entry is reported as “no binding”.

The values are drawn from article PMC4643982.
